The values below come from the DeepSol protein solubility set.

This data set in a line: soluble on expression in E. coli; label from the status in PepcDB or PDB records.
As to “MFVRVMKIAQNKKIVTVYPTTTIRKALMTMNENKYRRLPVVNAGNNKVVGIITSMDIVDFMGGGSKYNLIREKHERNFLAAINEPVREIMEENVITLKENADIDEAIETFLTKNVGGAPIVNDENQLISLITERDVIRALLDKIDENEVIDDYITRDVIVATPGERLKDVARTMVRNGFRRLPVVSEGRLVGIITSTDFIKLLGSDWAFNHMQTGNVREITNVRMEEIMKRDVITAKEGDKLKKIAEIMVTNDIGALPVVDENLRIKGIITEKDVLKYFA”, the “soluble on expression in E. coli” value was “soluble”.
Regarding “MDSFLMKGYIKEANIDYSCSRGSMEDLPKWEFREIPKVPRAVMPSLSLEERKNNFNEVELGLSEEVARKEARRCLKCGCSARFTCDLRKEASNHGIVYEEPIHDRPYIPKVDDHPFIVRDHNKCISCGRCIAACAEIEGPGVLTFYMKNGRQLVGTKSGLPLRDTDCVSCGQCVTACPCAALDYRRERGKVVRAINDPKKTVVGFVAPAVRSLISNTFGVSYEEASPFMAGLLKKLGFDKVFDFTFAADLTIVEETTEFLSRIQNKGVMPQFTSCCPGWINFVEKRYPEIIPHLSTCKSPQMMMGATVKNHYAKLMGINKEDLFVVSIVPCLAKKYEAARPEFIHDGIRDVDAVLTTTEMLEMMELADIKPSEVVPQEFDEPYKQVSGAGILFGASGGVAEAALRMAVEKLTGKVLTDHLEFEEIRGFEGVKESTIDVNGTKVRVAVVSGLKNAEPIIEKILNGVDVGYDLIEVMACPGGCICGAGHPVPEKIDSLEKRQQVLVNIDKVSKYRKSQENPDILRLYNEFYGEPNSPLAHELLHTHYTPKHGDSTCSPERKKGTAAFDVQEFTICMCESCMEKGAENLYNDLSSKIRLFKMDPFVQIKRIRLKETHPGKGVYIALNGKQIEEPMLSGNIPDESESE”, the “soluble on expression in E. coli” value was “soluble”.
Consider “MSLRKVFEESKIGNIKLKNRILRSATHESMADSEGKPTEDLIKKYMELAQGEVGAIITGYTGVMQNGKSPAKNMLMLDKDENITSFKNMVNEIHKYDVPIILQIAHCGRQTSEKVTGKPTVAPSPIRDKIYRGSVPHELTDVAINEIIEAFVNAIERAIKAGFDGVELHLAHGYLLSSFLSPHMNKRKDKWGGSTENRFRIVSEIMKRARQKFKNYPILAKINGYEASKDGIKLEEAIKISKALENSGINAIEVSCGIAEEGFVTIRGKVPFDMILKCDPTMKRIPEFLKPIVKHVGKLIVKSPEPHFLYNLNNAREIKNKVTIPVIVVGGIRKFSDIEDIIAKDCDFVSMSRPFIIQPSIVKTFKEGKEKESRCINCNYCLIGVETNELKCYYGKEGHHHHHH”, for which the “soluble on expression in E. coli” value is on record as “soluble”.
The entry for “MSLKAIFITGAGSGMGREGATLFHANGWRVGAIDRNEDGLAALRVQLGAERLWARAVDVTDKAALEGALADFCAGNVGGGLDMMWNNAGIGEGGWFEDVPYEAAVRVVDVNFKAVLTGAYAALPYLKKAPGSLMFSTSSSSGTYGMPRIAVYSATKHAVKGLTEALSVEWQRHGVRVADVLPGLIDTAILTSTRQHSDEGPYTISAEQIRAAAPKKGMFRLMPSSSVAEAAWRAYQHPTRLHWYVPRSIRWIDRLKGVSPEFVRRHIAKSLATLEPKREGHHHHHH” is “soluble”; for “KGIFSWESALTATYNKNEILDLNSETPMFINQIGNSYVTMLKAGYPINVFYGYVTDGLFQNWGEVNRHATQPGAAPGDIRFRDLNNDGVINDEDRTILGNPNPNWFFSLSNNLSYKGWELSVFLQGVAGNKIYNANNVDNEGMAAAYNQTTAVLNRWTGEGTSYSMPRAIWGDPNQNCRVSDRFVENGSYLRLKNITLSYTLPKKWLQKIQLENARISFSCENVATITRYSGFDPEVDVNGIDSSRYPISRTFSMGLNFNF” it is “not soluble”; for “MSSKLKISLSCGDYDRTRALFDGRAPIEGCEVTAVPLEPEEAFHRAFRYHEYDVTEISMSSHMMTTARGDNEYIAIPAFLSRVFRHSGIYVRTDRDIDKPQDLRGKTIGVPEYQITANVWIRGILEDAYGVKPQDIKWRRGGIEEPGRGERAPIELPDGIDLQQIPDDKTLSDMLEAGEIDGYIGARAPSCFLRGAPNVGRLFNDYLKTEQDYFRETRIFPIMHMVGIRRSLVEQNPWLPVSVYKAFLKAKMLAVKELNEICHLAVTLPWMVHHYNAARELMGDDYWPYGLDANRHVIETFARYHYGQGLSRRLVKPEELFAASSLDLSKIMAGDPNSLEHHHHHH” it is “not soluble”.
On to “MDVKPDRVIDARGSYCPGPLMELIKAYKQAKVGEVISVYSTDAGTKKDAPAWIQKSGQELVGVFDRNGYYEIVMKKVK”, for which the “soluble on expression in E. coli” value is listed as “soluble”.
Take “PKWQAVRAEYQRQRDPLHQFASQQNPEAQLQALQDKIRANPQNSEQWALLGEYYLWQNDYSNSLLAYRQALQLRGENAELYAALATVLYYQASQHMTAQTRAMIDKALALDSNEITALMLLASDAFMQANYAQAIELWQKVMDLNSPRINRTQLVESINMAKLLQRRSDLEHHHHHH”: the “soluble on expression in E. coli” value was “soluble”.
The entry for “MGSDKIHHHHHHMARNAKLDRLLTLVKALGESAEGLTLDEMAEVIGANRRTAERLRDLILVHFDLEEGVDDRHKRFRIPGTLPSPFIQPNVAEIAALKSLADTAHKAGSAQAPLLESLVGKVQAGLRREVKSRMAPDLEPLVRLQRHHVPAGPMIEHAPETVAQVQGAMMAGMCLEFDYLADGAAEPKWRRVIPVGLIHGPATYLIGKIPGRDLEPAPYRLDRIIAARVSNQPGAAGEDWDLDQWMSASFGIWREEGYEIVLRVAHESAERARKWRFHPQQMIEQDGEELIVRFHSGGLREIAEHLFTWGGEVRIEGPEELREMMRERLSAAGRAVV” is “not soluble”; for “MGHHHHHHSHMGRGSGTFERLLDKATSQLLLETDWESILQICDLIRQGDTQAKYAVNSIKKKVNDKNPHVALYALEVMESVVKNCGQTVHDEVANKQTMEELKDLLKRQVEVNVRNKILYLIQAWAHAFRNEPKYKVVQDTYQIMKVEGHVFPEFKESDAMFAAERAPDWVDAEECHRCRVQFGVMTRKHHCRACGQIFCGKCSSKYSTIPKFGIEKEVRVCEPCYEQLNRKAEGK” it is “soluble”.
The entry for “MKKVIKKYFFLALAIIMYSCNEDEKYDILERYTPETITSDEIAPVLNLQAQYMDSNSEIVLVTWMNPEDDFLSKVEISCCSANDNLLGEPVLLDAVSTKVGSYQTSLSVEERGYVKIVAINEKGVRSEARTAEILSSQQDFVYRADCLMSSVIELFFGGRYNAWNENYPNATGPYWDGIAAVWGQGAAYSGFVTMYKVTKETNNEKLRAKYAEKEETFLNSIDIFLNNGSGRKSFAYGTYIGPNDERYYDDNVWIGIEMANLYELTGNEVYLQHANTVWNFILEGIDDVTGGGVYWKEGAVSKHTCSTAPAAVMALKLYQLSKNESYLEIAKSLYSYCKDVLQDPNDYLFYDNVRLSDPSDKNSELKVSKDKFTYNSGQPMLAAAMLYRITKEEQFLKDAQNIAQSIYKKWFKNYHSSILDRDIMILSDPNTWFNAVMFRGFVELYKIDKNDVYVKAVKNTMEHAWQSNCRNRLTNLMSDDYAGDKKEGKWNIKTQGAFVEIFSLIGELEQLGCFQELEHHHHHH” is “not soluble”.
“MGSDKIHHHHHHMLKKESIHFINKNRSLIVCEDNFVYLLPCIQLRNWISNFTISFPNQTIISDNYTIIPHGSVTLVFFYDATGLHSLLFGPTTKPKTVGNIANRCDVILIIEFQPAGFFPLIGIQQSELIDKVVPFSIINTSLDLEIKKIFNESLSIDKLILKLEELLISNIKIEYSYEFILAIQLIIQNSGNISSQEISKKVFYSSRHLNRLFNQYLGLSMKSFSRLVRINKSIKLLNNNKTSLMSICNELGFYDIPHFIKDFKIVCGITPQKYRANMSDFYSEIAKF”: the “soluble on expression in E. coli” value is “not soluble”.
As to “MKISAVVVTFNRKKLLLECLNALRNQTYPLDAIFIIDGPSTDGTPEALLECGYIKELPPKKGNWSWETKNVIYSPINNKPIKVYYVRLYKDVGGSGGFYEGVKRAYEEGYNWIWLMDDDAEPREDALEKLIRYMNLPGVIALAPTVIRPTGEISKPHRGILCFKKIFPMIQIPLDESKYKSNQPVQIDFVSFVGPLIKRDAIKIVGFPKKEFFIHHDDVEYSIRLRTVGKIYLIPDSVIIHKENIKKTSLIKKRFLGKTIYRIPYNKLWKTYYGTRNLTYLGRIYSKSKFKFYFKLLKRWAVSVGAIILFDDHKIKRIQFITSAYLDGLRGKFDNEKPKRILYGGKKELEHHHHHH”, the “soluble on expression in E. coli” value is reported as “soluble”.
Turning to “MGKSSNIVFDRIKEERQMLSFFKIFQRADLSSDCMRALPYSFISKVSEKDFSYKMVIRAQWGKTWDVEVSKNPTYYYIETRGWDLFVSDNALGQNEFITFTHRGNMVFHVNIYEQNGLEMRKPRKFQTMGPSSGIKKEEGENSLIDVKKEEESDESPGRAEFLVRKKKTEDSKSSKKKMTRNKVKKKSKSKSKQVLDGVPEFKITIRKSYLKFLAIPKHFVDDHIPNKSKIFTIRHPNGGSWKVLCLVREIRTIFSGGYSKLAREFPLMVGDKCTFKLIKPFEFVLLTSKKNREKMDQCMID”, the “soluble on expression in E. coli” value is recorded as “soluble”.
With “MAGDPMRFQKIPMNIYEKFHRTFSGSNQDTFNVCSKCGGACEHNKIGTLLPGEKEYMAKKMGMSLSEFKLKYLDVLKMDDGTLIHVLKLGELCPFLNTETELCECRDFKPVICKIYPVVFTVESGKVKFSIDDWCQLSRKKVCRNYFESVIPLLYRLPVPVEWFRHVVSYDDLYFDYDQLRESRKGKSRYAVFTLKELLNFQKEELACHEIETYEPETGRMELYEIKVTSPNIDFCSEIEEPTFLEHHHHHH”, the “soluble on expression in E. coli” value is recorded as “soluble”.
Regarding “MGSDKIHHHHHHMAGYNTYVVGKWHVGTKSVPEDYGIKGHNFDGYGYPGSGVYKNLVFNQPPTHSNRYKEWLEEKGYEIPEVSRAYFGDNPHLRVQELCGLLSGAKDQTIPYFIIDEAKKYIQESLDEGKPFFAWINFWGPHTPCIVPEPYYSMYRKEDVVLDKSFFTPLEGKPDHFRTISKMWGMWEASEDHWKEVITKFWGYITLIEDDNLVYLHDLTSTVFDLANQKVPESFEGQSVLPIMRQHQDNQRKGVLGQLAGHFVYFEQRMWRRKDYKLVFNATDVCELYNIRNDPEEMHNLFYDPQYNRIKKEMLEEMRAEMKRLNDPLENWVYRIIDEI”, the “soluble on expression in E. coli” value is listed as “not soluble”.
To “MARVYVSTVVNARNDRVWARVRDFNGLPNWHPAIAESRIEGGEPSDKIGCVRDFRLRNGDRIREKLLGLSDYDMFCTYSILESPMGVENYVATLRLTPVTDGDQTFMEWTAEFDCAPERETELVNNIGGGVFQGGFDALKRVFGGLEHHHHHH” belongs “soluble”; to “MFERLREDIQSVFHRDPAARNAFEVLTCYPGMHAIWLHRLGNALWRRDFKWLARLVSNFGRWLTGIEIHPGATIGRRFFIDHGMGIVIGETAEIGDDVTLYQGVTLGGTSWNKGKRHPTLENGVVVGAGAKVLGPFTVGAGAKIGSNAVVTKAVPAGATAVGIPGRIIVKSEDTEVEAKRKAMAEKIGFDAYGVSGDMPDPVARAIGQMLDHLQAVDERLEGMCGALTKMGSDYCAKELPALPEDDFSLEHHHHHH”, “soluble”.
On to “MSLGKMVIGFAHPDFNDMFLGFLLAGVQAYEAEQTNVEVVYVDAENDSDGQIAQVEDLIAQGVDAIMAIPVDLIATEFIVDRAQQAGVPVVLINRDSVEREDAYVGSDSLQAGTIQMEEVAAVLKGKGKIAIMNGQMGHTAQINRTLGNKQVVDQYPGMEVVIEGTGGWSREKGKELMESWIESGQTFDAVVANNDEMAIGAIMAAEEAGIVDELVFAGIDGTPDALDYMSKGKLTISVFQDAKGQGQTGLEQAIKLAKGESAEKMTNIPYETITKRNVDEGHHHHHH”, for which the “soluble on expression in E. coli” value is on record as “soluble”.
